Biological target: wt ACE2_(615)-Fc (M27) (human) (UniProt Q9BYF1)
Assay: SPR

Sequence of wt ACE2_(615)-Fc (M27) (human) (Q9BYF1 18-615): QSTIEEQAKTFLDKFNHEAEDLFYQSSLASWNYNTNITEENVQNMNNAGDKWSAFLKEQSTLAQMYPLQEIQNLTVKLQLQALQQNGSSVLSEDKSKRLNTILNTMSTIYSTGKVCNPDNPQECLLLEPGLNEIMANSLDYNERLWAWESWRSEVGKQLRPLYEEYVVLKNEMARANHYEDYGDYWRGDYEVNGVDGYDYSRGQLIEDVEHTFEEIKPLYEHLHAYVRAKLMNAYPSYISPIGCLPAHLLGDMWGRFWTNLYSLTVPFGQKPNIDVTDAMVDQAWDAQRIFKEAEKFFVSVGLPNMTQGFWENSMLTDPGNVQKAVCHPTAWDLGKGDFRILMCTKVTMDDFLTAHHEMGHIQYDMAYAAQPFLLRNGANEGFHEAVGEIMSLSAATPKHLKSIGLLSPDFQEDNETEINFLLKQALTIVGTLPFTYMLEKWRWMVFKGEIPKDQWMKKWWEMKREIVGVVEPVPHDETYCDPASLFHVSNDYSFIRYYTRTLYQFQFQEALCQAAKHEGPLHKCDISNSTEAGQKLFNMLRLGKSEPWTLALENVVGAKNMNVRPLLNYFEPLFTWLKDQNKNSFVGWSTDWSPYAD

“SARS-CoV RBD (residues 306 to 577) (domain or fragment)” gave a fold lower affinity than RBDwt on M27 of 5 fold.

From article PMC9278865
